Reference: patent US20190359693A1

Target: hemagglutinin (HA) of influenza virus H3N? A/Env/MPJ193/09 (influenza A virus)
Test: cell-based or functional assay

B1: MD2407 (bispecific antibody)
chain: EVQLVESGGGLVQPGGSLRLSCAVSISIFDIYAMDWYRQAPGKQRDLVATSFRDGSTNYADSVKGRFTISRDNAKNTLYLQMNSLKPEDTAVYLCHVSLYRDPLGVAGGMGVYWGKGALVTVSSGGGGSGGGGSEVQLVESGGGLVQAGGSLKLSCAASGRTYAMGWFRQAPGKEREFVAHINALGTRTYYSDSVKGRFTISRDNAKNTEYLEMNNLKPEDTAVYYCTAQGQWRAAPVAVAAEYEFWGQGTQVTVSSGGGGSGGGGSEVQLVESGGGLVQPGGSLRLSCAATGFTLENKAIGWFRQTPGSEREGVLCISKSGSWTYYTDSMRGRFTISRDNAENTVYLQMDSLKPEDTAVYYCATTTAGGGLCWDGTTFSRLASSWGQGTQVTVSSGGGGSGGGGSEVQLVESGGGLVQPGGSLKLSCAASGFTFSTSWMYWLRQAPGKGLEWVSVINTDGGTYYADSVKDRFTISRDNAKDTLYLQMSSLKSEDTAVYYCAKDWGGPEPTRGQGTQVTVSS
average neutralization titer: 24.5 nM
